# Results as given in patent US20110046887A1, “METHOD FOR ASSESSING PATHWAY PRODUCT LEVELS” (priority 2006, published 2011).
# Assays:
# [1] = injected GnRH, i.v. bolus; cited from earlier work
# Pulsatile LH secretion = experiment: Expected pulsatile LH secretion in KTCZ/DEX paradigm with Te addback; type: in vivo, human
# Description: Volunteers (Forty (40) healthy men ages 18-80 years) arrived at a testing facility by 1730 hours and stayed two nights. At 1800-2000 hours, two i.v. catheters were placed in (contralateral) antecubital veins to allow concomitant saline or Te infusion and blood sampling. […] This regimen can reduce the concentration of total Te from 530±61 to 85±13 ng/dL overnight. […] Visits were greater than or equal to two weeks apart. The order of the four visits was prospectively randomized, and interventions were double-blind.
# To enforce pulsatile negative feedback, 12 consecutive pulses of Te or saline was given i.v. on top of the basal infusion. […] To monitor LH and Te concentrations, blood samples (1.25 mL) were withdrawn every 10 min for 16 hours beginning at 0800 hours, FIG. 7.
# Te was infused at a constant rate of 1.0 mg/24 hours from midnight (MN) until MN. There were 12 superimposed pulses each at a session-defined dose of zero (saline), 167, 333 or 500 μg delivered over 6 min every two hours from MN to 2200 hours. Resultant total (basal+pulsatile) Te infusion rates were equivalent to 1, 3, 5 and 7 mg/24 hours, thus spanning sub-, mid- and high-physiological Te production rates in healthy young men (normal interquartile range 4-6 mg/day) (Veldhuis et al., Physiological Basis of Aging and Geriatrics, 3rd edition, 213-231, Boca Raton, CRC Press (2003); Veldhuis, Reproductive Endocrinology, 4th edition, 622-631, Philadelphia, W.B. Saunders Co., (1999)). Crystalline testosterone was dissolved in 100% ethanol, diluted to less than 0.3% ethanol in normal saline, and microfiltered for i.v. infusion after sterility and pyrogen testing.
# Estimates based on data described elsewhere (Zwart et al., J. Clin. Endocrinol. Metab. 82:2062-2069 (1997)) indicate that statistical power can exceed 90% to detect an effect of age that explains 33% or more of the variability in Te feedback sensitivity if 40 subjects are studied. The predicted slope±SD of feedback sensitivity regressed on age is (×10^−3) 1.5±0.25. […] Because an a priori postulate is that age reduces feedback sensitivity, a test of significance can be one-tailed; and because both sensitivity and efficacy can be examined, the experiment-wise critical value is P≦0.025.
# [2] = Bayesian deconvolution of 24-hr pituitary-hormone concentration profiles (secretion and elimination parameters); type: in vivo, human; settings: 24-hr 10-min sampled profile, ACTH, LH young, GH person
# Description: The experimentalist requires an automated procedure by which to simultaneously detect pulse times and estimate secretion/kinetic features. […] In each case, discrete blood sampling (i.e., the withdrawal lasting 5-10 sec) was performed every 10 min for 24 hr. [Integrative sampling (continuous withdrawal) yields a time-integrated or flattened version of the impulse, thereby underestimating absolute peak values and overestimating interpulse valleys.] If the set (Y1, Y2, . . . , Yn) denotes observed hormone concentrations, n would be 145 for 10-min sampling over 24 hr. […] One would like to find values (a,b) so that, for a specified probability, e.g., 0.95, one can make the following probability statement:
# Assuming that pulse-onset times are given by ℑm={T^1, T^2 . . . , T^m}, Keenan and Veldhuis give a model to estimate secretory dynamics conditional on pulse times (Keenan & Veldhuis, 1998; Keenan et al., 2000; Keenan et al., 1998). The primary components are basal and pulsatile secretion, a flexible secretory-burst shape, random effects on burst mass, biexponential elimination kinetics and combined experimental uncertainty in sample collection, processing and assay. We suppose that M, the amount of hormone secreted in the j^th burst (mass per unit distribution volume), is the sum of a finite amount of minimally available stores, a linear function of hormone accumulation over the preceding interpulse interval, and a random effect allowing for biological variability in individual burst mass:
# In the present Bayesian approach, an a priori (prior) probability distribution is placed on the parameter space: Θ×ℑ, where ℑ={ℑN, ℑN-1, . . . , ℑp} in Eq. [16] and Θ denotes the parameter set in Eq. [14]. The prior density on Θ×ℑ is assumed to be a product: π×λ, with a uniform prior on Θ, π(θ)∝ to a Constant. The prior on ℑ is the Akaike Information Criterion (AIC) penalty for the number of pulse times m, λ(ℑm)∝exp(−m). […] Measured data Y=(Y1, Y2, . . . , Yn)′ are then incorporated via a likelihood function (Eq. [15]), resulting in the a posteriori (posterior) probability distribution on Θ×ℑ:
# The algorithm of the present paper utilizes a mathematically justified procedure for simulating from the joint (Θ×ℑ) posterior distribution (Eq. [18]). The basic idea is that, for a given hormone concentration profile, one generates an array of (e.g. 100) simulations from the posterior distribution, which allows one then to make probabilistic statements about the parameters of pulse times, secretion and elimination.
# total basal secretion as: n×β0, and total pulsatile as the difference. Repeated sampling of (θ,ℑm), and calculation of total pulsatile secretion (for each), produces a probability histogram approximating the posterior distribution for total pulsatile secretion, given an observed concentration profile. […] Specifically, in reference to Eq. [9]
# Histograms are based on 100 simulations from the joint posterior distribution.
# [3] = oral dosing in healthy men; cited from earlier work
# total Te = settings: overnight after oral KTCZ 1000 mg with DEX 0.75 mg at midnight; reduced from 530±61; cited from earlier work
# [4] = 0.05 quantile of posterior distribution
# [5] = 0.25 quantile of posterior distribution
# [6] = 0.50 quantile of posterior distribution
# [7] = 0.75 quantile of posterior distribution
compound,measurement,setting,value
gonadotropin-releasing hormone [GnRH],first-phase half-life,[1],3 to 7 min
same,second-phase half-life,[1],35 to 50 min
"C[C@]12CC[C@H]3[C@@H](CCC4=CC(=O)CC[C@@]43C)[C@@H]1CC[C@@H]2O [Te, testosterone]",Pulsatile LH secretion,"Pulsatile LH secretion; oldest subjects, 1 mg Te addback, free Te decrement 15 ng/dL",2.0 IU/L/min
same,Pulsatile LH secretion,"Pulsatile LH secretion; oldest subjects, 7 mg Te addback (start of expected increase)",0.65 IU/L/min
same,Pulsatile LH secretion,"Pulsatile LH secretion; youngest subjects, 1 mg Te addback, free Te decrement 17 ng/dL",3.5 IU/L/min
same,Pulsatile LH secretion,"Pulsatile LH secretion; youngest subjects, 7 mg Te addback (start of expected increase)",0.50 IU/L/min
growth hormone [GH],Slow Half-Life,[2]; [4],28 min
same,Slow Half-Life,[2]; [5],31 min
same,Slow Half-Life,[2]; [6],31 min
same,Slow Half-Life,[2]; [7],31 min
"adrenocorticotropin hormone (SYSMEHFRWGKPVGKKRRPVKVYPNGAEDESAEAFPLEF; Corticotropin; UniProt P01189 138-176, looked up) [ACTH, endogenous pituitary hormone measured in blood of a person]",Slow Half-Life,[2]; [4],9 min
same,Slow Half-Life,[2]; [5],11 min
same,Slow Half-Life,[2]; [6],15 min
same,Slow Half-Life,[2]; [7],19 min
same,Slow Half-Life,[2]; 0.95 quantile of posterior distribution,25 min
"CC(=O)N1CCN(c2ccc(OCC3COC(Cn4ccnc4)(c4ccc(Cl)cc4Cl)O3)cc2)CC1 (centres unmarked) [KTCZ, ketoconazole]",half-life,[3],six
same,concentration of total Te,total Te,85 ± 13 ng/dL
